{"source": "patent US20260077011A1", "about": "“INTEGRIN INHIBITORS AS THERAPY FOR OBESITY DISORDERS” (priority 2022, published 2026)", "key": {"RAW264.7 cells": {"system": "RAW264.7 cells", "assay_type": "cell-based", "experimental": "(§1) Cells were also analyzed for the FITC-labeled peptide, which was added to the suspension of RAW264.7 cells in doses of 100 nM, 1 μM, 3 μM, 10 μM, 30 μM, 100 μM, and 300 μM, for one hour. For the time curve binding assay, 3 μM of the FITC-peptide were incubated with cells for 1, 5, 15, 60, 180, and 360 minutes before and analyzed on flow cytometry. For the propidium iodide (PI) assay, cells were incubated with different doses of the peptide for eight and 24 hours, with 10% DMSO serving as a positive control; the cells were then suspended, stained with PI, and analyzed with flow cytometry.\nTo investigate the effects of the SVEP1-based peptide on the metabolic and proliferative capacity of macrophage cells, RAW264.7 cells were subjected to varying concentrations of the peptide (1, 10, 30, 120 μM). The cells' metabolic activity was assessed using XTT after 3, 8, and 24 hours of peptide treatment. […] To further evaluate cell viability, propidium iodide (PI) staining was conducted after 8 and 24 hours of peptide treatment. […] These findings provide evidence of the peptide's safety profile and its potential suitability for use in macrophage cells."}, "ITGA9": {"biological_target": "T1, ITGA9 (Mus musculus, UniProt B8JK39+P09055)", "T1 construct": "RAW264.7 cells, a murine macrophage-like cell line, was chosen due to their similarity to macrophages, adhesive and migratory capabilities, and their expression of integrin α9β1; host or cells: RAW264.7", "T1 sequence (B8JK39 29-1036)": "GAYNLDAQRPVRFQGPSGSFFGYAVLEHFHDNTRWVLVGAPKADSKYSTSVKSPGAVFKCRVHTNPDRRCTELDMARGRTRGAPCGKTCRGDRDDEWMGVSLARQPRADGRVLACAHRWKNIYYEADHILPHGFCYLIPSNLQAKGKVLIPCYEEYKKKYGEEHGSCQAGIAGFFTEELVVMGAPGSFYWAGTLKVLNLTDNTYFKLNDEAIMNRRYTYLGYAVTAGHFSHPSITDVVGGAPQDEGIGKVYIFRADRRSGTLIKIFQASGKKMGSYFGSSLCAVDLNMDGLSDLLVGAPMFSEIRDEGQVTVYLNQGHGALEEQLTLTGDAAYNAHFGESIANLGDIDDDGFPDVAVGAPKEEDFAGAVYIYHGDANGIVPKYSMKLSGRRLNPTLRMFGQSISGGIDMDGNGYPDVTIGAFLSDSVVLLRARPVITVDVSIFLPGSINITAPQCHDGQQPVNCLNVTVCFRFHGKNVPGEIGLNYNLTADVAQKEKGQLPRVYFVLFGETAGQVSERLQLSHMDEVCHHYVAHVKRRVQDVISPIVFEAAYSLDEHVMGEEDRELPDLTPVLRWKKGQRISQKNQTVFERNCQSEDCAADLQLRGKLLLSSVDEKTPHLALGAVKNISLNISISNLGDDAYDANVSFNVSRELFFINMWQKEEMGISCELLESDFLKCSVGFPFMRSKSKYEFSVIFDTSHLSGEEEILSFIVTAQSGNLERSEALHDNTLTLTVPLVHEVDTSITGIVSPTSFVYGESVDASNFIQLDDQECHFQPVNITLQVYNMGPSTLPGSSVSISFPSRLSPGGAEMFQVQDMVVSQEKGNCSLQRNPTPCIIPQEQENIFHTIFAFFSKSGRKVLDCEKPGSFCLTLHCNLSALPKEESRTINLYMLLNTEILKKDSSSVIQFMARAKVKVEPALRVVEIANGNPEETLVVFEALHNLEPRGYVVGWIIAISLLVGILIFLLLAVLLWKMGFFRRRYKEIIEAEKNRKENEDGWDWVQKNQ", "T1 sequence (P09055 21-798)": "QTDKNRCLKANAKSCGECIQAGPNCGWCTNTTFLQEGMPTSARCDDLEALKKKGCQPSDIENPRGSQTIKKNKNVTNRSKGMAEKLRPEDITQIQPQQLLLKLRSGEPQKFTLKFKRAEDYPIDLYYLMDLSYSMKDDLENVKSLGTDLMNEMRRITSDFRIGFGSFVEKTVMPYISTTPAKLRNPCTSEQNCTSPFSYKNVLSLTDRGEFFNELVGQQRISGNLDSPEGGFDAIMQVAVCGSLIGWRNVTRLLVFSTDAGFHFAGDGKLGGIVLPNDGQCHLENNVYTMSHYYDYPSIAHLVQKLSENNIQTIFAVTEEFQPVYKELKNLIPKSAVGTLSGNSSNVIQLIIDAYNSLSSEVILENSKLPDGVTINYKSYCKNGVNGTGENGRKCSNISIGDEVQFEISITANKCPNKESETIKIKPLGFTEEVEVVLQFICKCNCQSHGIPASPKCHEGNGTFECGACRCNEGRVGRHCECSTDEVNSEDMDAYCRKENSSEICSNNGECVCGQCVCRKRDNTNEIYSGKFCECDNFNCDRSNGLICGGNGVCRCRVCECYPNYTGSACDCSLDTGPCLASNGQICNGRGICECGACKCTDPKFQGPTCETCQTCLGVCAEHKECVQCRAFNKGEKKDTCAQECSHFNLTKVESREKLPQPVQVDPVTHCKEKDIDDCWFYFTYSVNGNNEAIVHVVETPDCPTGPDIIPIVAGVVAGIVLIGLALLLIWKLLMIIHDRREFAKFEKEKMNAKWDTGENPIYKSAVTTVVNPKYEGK", "experiment": "FITC-peptide binding specificity in ITGA9 knockdown (siITGA9) cells", "conditions": "RAW264.7 cells, FITC-peptide 30 μM, 60 minutes", "experimental": "For siRNA assays, RAW264.7 cells were transfected by using Avalanche®-Everyday Transfection Reagent (Ezbio systems) with siSCR (Santa Cruz) and siITGA9 (Santa Cruz) in DMEM. The transfection solution was added to the cells for 48 hours, and the cells were examined after an additional 48 hours (96 hours in total).\n(§2) RAW264.7 cells were incubated in PBS with 2% serum, 0.1% NaN3, and 1 mM EDTA for 20 minutes, collected, and centrifuged at 1800 rpm for 5 min. Next, the cells were suspended in a staining buffer; PBS with 2% serum and 0.1% NaN3 for 15 min on ice. The cells were stained for ITGA9-PE (R&D technologies).\nIn a previous study, a 9 amino-acid long sequence, “EDDMMEVPY”, was identified as the binding site of SVEP1 to integrin α9β1. […] The inventors first performed a dose-dependent uptake test, where the RAW264.7 cells were incubated with increasing peptide concentrations for half an hour and then measured in a flow cytometry assay. […] Next, the cells were pretreated with the peptide for different time durations and were also measured by flow cytometry analysis. The peptide bonded relatively quickly, with 50% of max mean fluorescence intensity presented after 15 minutes and stabilization after three hours (FIG. 5C). […]"}, "integrin α9β1 [1]": {"biological_target": "T2, integrin α9β1 (Mus musculus, UniProt B8JK39+P09055)", "T2 construct": "RAW264.7 cells, a murine macrophage-like cell line, was chosen due to their similarity to macrophages, adhesive and migratory capabilities, and their expression of integrin α9β1; host or cells: RAW264.7", "T2 sequence (B8JK39 29-1036)": "as the sequence (B8JK39 29-1036) above", "T2 sequence (P09055 21-798)": "as the sequence (P09055 21-798) above", "experiment": "Fluorescent live microscopy of FITC-peptide binding with/without unlabeled peptide", "conditions": "RAW264.7 cells, FITC-peptide 30 μM", "experimental": "FIGS. 5A-5M include fluorescent micrographs and graphs showing characterization of the peptide's binding properties. (5A) Representative immunofluorescent confocal images of Raw264.7 cells stained for F4/80 and ITGA9, the dotted line square represents the magnified pictures, scale bar 116 μm. (5B) Flow cytometry quantification of LPS-activated RAW264.7 cells, ITGA9 MFI levels in LPS-activated RAW264.7 cells (4 hours), significance was calculated by unpaired t-test analysis. (5C) Calculated dose-response curve of Peptide-FITC positive RAW264.7 cells, measured in flow cytometry and time curve of the averaged mean fluorescent intensity (MFI) of RAW264.7 cells incubated with the labeled peptide, the MFI was calculated by flow cytometry. (5D) Representative images of RAW264.7 cells incubated with FITC-peptide (30 μM) for 15 and 60 minutes with and without an unlabeled peptide, scale bar=100 μm, and quantification of fluorescence intensity of RAW264.7 cells incubated with FITC-peptide (30 μM) for 15 and 60 minutes, w/o the unlabeled peptide, significance was calculated by using an ordinary one-way ANOVA. […] (5F) ITGA9 fluorescence intensity histogram in Scrambled and ITGA9 KD (Red) Raw264.7 cells incubated with FITC-peptide (30 μM) for 60 minutes, measured by flow cytometry. […]"}, "integrin α9β1 [2]": {"biological_target": "T2, integrin α9β1", "experiment": "FITC-peptide dose-dependent uptake and time curve binding, flow cytometry", "conditions": "RAW264.7 cells", "experimental": "as §2, §1\nAll labeled cells were analyzed by Cytoflex5l and Kaluza software (Beckman Coulter instrument).\nIn a previous study, a 9 amino-acid long sequence, “EDDMMEVPY”, was identified as the binding site of SVEP1 to integrin α9β1. To examine the effect of the peptide in vitro, RAW264.7 cells, a murine macrophage-like cell line, was chosen due to their similarity to macrophages, adhesive and migratory capabilities, and their expression of integrin α9β1, as shown in the confocal staining of ITGA9 and F4/80, with a seeming membranal expression of both (FIG. 5G). […] To characterize the binding properties of the peptide, a fluorescein isothiocyanate (FITC) labeled peptide was generated. The inventors first performed a dose-dependent uptake test, where the RAW264.7 cells were incubated with increasing peptide concentrations for half an hour and then measured in a flow cytometry assay. […] Next, the cells were pretreated with the peptide for different time durations and were also measured by flow cytometry analysis. The peptide bonded relatively quickly, with 50% of max mean fluorescence intensity presented after 15 minutes and stabilization after three hours (FIG. 5C). […]"}}, "note": "Where no end group is shown, it is not given here."}
{"substance": "EDDMMEVPY [peptide, EDDMMEVPY]", "values": [{"measurement": "fraction of PI-positive cells compared to the untreated group", "setting": "RAW264.7 cells", "result": "remained unchanged"}]}
{"substance": "FITC-peptide: fluorescein isothiocyanate (FITC) labeled peptide of 9 amino acids (EDDMMEVPY) (also: FITC labeled, site not given here)", "values": [{"measurement": "FITC-peptide binding (fluorescence intensity) in siITGA9 versus scrambled cells", "setting": "ITGA9", "result": "lower intensity levels"}, {"measurement": "percentage of ITGA9+FITC-peptide+ cells in KD cells", "setting": "ITGA9; flow cytometry", "result": "significantly lower"}, {"measurement": "increase of fluorescence intensity after 60 minutes compared to 15 minutes", "setting": "integrin α9β1 [1]", "result": 35, "unit": "%"}, {"measurement": "change of fluorescence intensity when co-incubated with the unlabeled peptide", "setting": "integrin α9β1 [1]; competitive binding", "result": "decreased by a similar percentage"}, {"measurement": "time to 50% of max mean fluorescence intensity", "setting": "integrin α9β1 [2]; 3 μM FITC-peptide", "result": 15, "unit": "min"}, {"measurement": "time to stabilization of mean fluorescence intensity", "setting": "integrin α9β1 [2]; 3 μM FITC-peptide", "result": "three"}, {"measurement": "percentage of Peptide-FITC positive cells", "setting": "integrin α9β1 [2]; increasing peptide concentrations, half an hour", "result": "higher percentage of positive cells in a dose-related manner"}]}
